Laboratory results as given in a protein production outcome set (Wang et al. 2014).

Test: label from the status in PepcDB records

Sequence: MNGFIPIIASIAISLPLLIFGSHSDVKKRSINSFTFLPIFILALAFYILDKDVVMSIVTILSTVAVFIKPNIYVYIVLPLIIIGIGFFDTINLLTILIVGMFLLTGFGELLFGIGDIKGIVSVVLLFSSIPRFNNYIPFSIVFVFFIAVASGGALLYFVVYARLNGLKLRGLNVLYDEHEYLRNTIKYQLKDTNSGKVMIYRVPFLVPILVSTVLSLIAQLIIYASIHT
- protein production: failed

Sequence: QLSMLNPQKPMRRSEQHIARQVFSGLTRLDEEEQLQPDLAHAWQALSDTHWRFYLRPGVRFHNGNLLTTELIVQNLWQLRLLNLFAHIDRVDSPYPWAVDVHLQKPDTRLPLLLAEACAKILPAESDRNPDFDLMPVGTGPYKVVLND
- protein production: failed

Sequence: MAKETVCVTGANGFIGSWIIRTLIEKGYTKIHASIYPGSDPTHLLQLPGSDSKIKIFEADLLDSDAISRAIDGCAGVFHVASPCTLDPPVDPEKELVEPAVKGTINVLEAAKRFNVRRVVITSSISALVPNPNWPEKVPVDESSWSDLDFCKSRQKWYPISKTLAEKAAWEFSEKHGTNIVTIHPSTCLGPLLQPNLNASCAVLLQLLQGSTETQEHHWLGVVHVKDVAKGHVMLFETPDASGRFLCTNGIYQFSEFAALVSKLFPEFAVHKFDKETQPGLTSCNDAAKRLIELGLVFTAVEDAVKETVQSLRDKGFL
- protein production: failed

Sequence: MSFPLIFERSRKGRRGLKLVKAVPKAEDLIPKEHLREVPPRLPEVDELTLVRHYTGLSRRQVGVDTTFYPLGSCTMKYNPKLHEEAARLFADLHPYQDPRTAQGALRLMWELGEYLKALTGMDAITLEPAAGAHGELTGILIIRAYHEDRGEGRTRRVVLVPDSAHGSNPATASMAGYQVREIPSGPEGEVDLEALKRELGPHVAALMLTNPNTLGLFERRILEISRLCKEAGVQLYYDGANLNAIMGWARPGDMGFDVVHLNLHKTFTVPHGGGGPGSGPVGVKAHLAPYLPVPLVERGEEGFYLDFDRPKSIGRVRSFYGNFLALVRAWAYIRTLGLEGLKKAAALAVLNARYLKELLKEKGYRVPYDGPSMHEFVAQPPEGFRALDLAKGLLELGFHPPTVYFPLIVKEALMVEPTETEAKETLEAFAEAMGALLKKPKEWLENAPYSTPVRRLDELRANKHPKLTYFDEG
- protein production: not failed

Sequence: MNKVQSIDPLIADKFNNELRSYNLEYKLEQESLNKEIDEALKNYASKNGGLGGNRPDVKLLLNTQDPNRRVPILIEYKGLKDKLIKLDKNKLVENFKNHEPHYKNIREYALNGALHYANAILHHTSYTECIAIGITGYKDNKGGICSQIAVYYVNKSNLGMGIDVSKGEQGYSDLSFLSRKHFNDFIKRVDTLSLSDEDLERIREKKNQEIEDCLMRLNNNIYNKEKNFLSEHNRVYLVIASIIANLGIPNLVTPLNKEDLKSSDEVHQRDGDIMLRKIQSFLENKDLSPEKRQSIISSLETLLRNENNNKATNGESCLKRCFSEIVDSLGIYYKIGLSTDFTGKLFNEMYRWLGFTKDQLNDVVLTPPYVATLLARLSKVNKDSFVWDFATGSAGLLVASMNLMIEDAKKRITSPEELEQKIAHIKAKQLLGIEILSDIHTLAVLNMILMGDGSSQILNQDGLSGFDGKVNNEAFKANAFVLNPPYSASGNGMVFVEQALEKMQSGYASVIIQSSAGSGKAKEYNVRILEKHTLLASIKMPLDLFIGKSSVQTHIYVFRVNEKHDAKQRVKFINFSNDGYARANRKKAKASHNLKDTHNAKERYNEVVDLVHIGQSCLKFLSEDDYYENTIDPKNGSDWNQNKPTDTKPELEDFKRTIADYLSYEVSLILKNQMPPKR
- protein production: failed

Sequence: MTHYHFVGIKGSGMSSLAQIMHDLGHEVQGSDIESYVFTEVALRNKGIKILPFDANNITKEMVVIQGNAFPDNHEEIVRAHELKLDIIKYHDFLGHVINQYTSVAVTGAHGKTSTTGLLSHVMNGDKKTSFLIGDGTGMGLPGSDYFAFEACEYRRHFLSYHPDYAIMTNIDFDHPDYFKNIDDVYDAFQHMALNVKKGIIAWGDDEYLRKLDVDIPVYYYGFKETDDIYAKNIQITEKGTQFDVYIKGEFYDQFLSPQYGNHNILNALAVIAISYLEDMNVENIKEALITFGGVKRRFNETKVSNQVIVDDYAHHPREISATIETARKKYPQKDVVAVFQPHTFSRTQAFLNEFAESLSKADQVFLCEIFGSIRENTGDLTIEDLINRIDGSTLIDENSIDVLEKFDNAVILFMGAGDIQKLLKAYFEKLGVKNDF
- protein production: failed

Sequence: MNYDDPKKKVGRNIKRLRLKAGIKSQAALAELCGWKSQSRVGNYEAGTRAVSAIDAETLAKVLNVTPAEILYGENNKDDDFVSMPSAQYSSGPYEEEDPFQLFKPKQELQNAEWHAGFELWDGDTPLRDDEVALPFYREVELAAGSGSTFVQENGGCKLRFAKSTLKKSRVEPSNAACVTVSGNSMLPVLRHGTTVGVDTSKKSIIDGEMYAIDHDGMLRVKMLYRTPGGGIRIKSYNNDEFPDEFIPPEKASDIKIIGWVFWWSVLNVWNN
- protein production: failed

Sequence: MISKAISAQCRHLHRAAVLVAVMSALAATGCSKKEAPQAPAPSAGTPQAGAPAAMPEGMSGQQQTAMGRAIFNKRCASCHGTDGNGAGSRSGPALDQAQFKYGRTPEAIRESIVKGRPNGMPAFGAAFQEIEIDTLVGYVMGLTKQ
- protein production: failed

Sequence: MSVIKIEKALKLDKVIFVDVRTEGEYEEDHILNAINMPLFKNNEHNEVGTIYKMQGKHEAIQKGFDYVSYKLKDIYLQAAELALNYDNIVIYCARGGMRSGSIVNLLSSLGVNVYQLEGGYKAYRNFVLEYLRHVMDTK
- protein production: not failed

Sequence: MAFQLHPRLQQDCIVLGNLPLCKVLLIKEDIGPWLILVPRIEELKEIHHMTDEQQIQFIKESSAVAQLLEDNFSPDKINIGALGNLVPQLHIHHIARFTTDVAWPGPVWGNTTGVIRAQSSQTQLVDLLRDKLSNISGFKRLEHHHHHH
- protein production: not failed

Sequence: MSLRAELNQGLIDFLKASPTPFHATASLARRLEAAGYRRLDERDAWHTETGGRYYVTRNDSSLIAIRLGRRSPLESGFRLVGAHTDSPCLRVKPNPEIARNGFLQLGVEVYGGALFAPWFDRDLSLAGRVTFRANGKLESRLVDFRKAIAVIPNLAIHLNRAANEGWPINAQNELPPIIAQLAPGEAADFRLLLDEQLLREHGITADVVLDYELSFYDTQSAAVVGLNDEFIAGARLDNLLSCHAGLEALLNAEGDENCILVCTDHEEVGSCSHCGADGPFLEQVLRRLLPEGDAFSRAIQRSLLVSADNAHGVHPNYADRHDANHGPALNGGPVIKINSNQRYATNSETAGFFRHLCQDSEVPVQSFVTRSDMGCGSTIGPITASQVGVRTVDIGLPTFAMHSIRELAGSHDLAHLVKVLGAFYASSELEGHHHHHH
- protein production: not failed

Sequence: MSLPGLSAAADQTIKIGAQSMSESEIIASMLGQLIEHHTDLKTTTIKNLGSNAVQQQALMNGEIDIAATRYTGDALTGTLRMEPEKDPDKALALTQREFKKRYDLKWYDSYGFDNTYAFTVSKELADQYHLETVSDVKKWAPQLKLGVDNYWMKLKGNGYQDFTKTYGMTFGGTYPMQIGLVYDAVKSGKMDIVLAYSTDGRIKSYGLKMLKDDKQFFPPYDCSPVVPEKVLKEHPELEGIIKKMLGKIDTATMQELNYEVDGNLKEPSVVAKEYLEKHRYFESLEHHHHHH
- protein production: not failed

Sequence: EELQALVDNIPAAIYHLDVSGQATIRFRPPAFLKTLVSEHAGTTRLNTLSMIHHDDRHMLSNAYSKLREAKHSLTLVYRIVTPEGKLHWIEDHMRSSFSDDGLFSGIDGILCEVT
- protein production: not failed

Sequence: MVKSIVILIETVTMKIPAVYSDGSFKTFNDSETTAQKLVDSGVVNTFAFGPTLVENGKVAVSENEEVGQDMADNPRTAIVVNEESDRSVHYIVIVSDGRTSESSGLTLYEMAELMKSYGVMTGYNLDVGDSSTMYSNGQVINKPTRKRKQNLRKGGERYRLHRLLKNLLASTFSPPILVLEHHHHHH
- protein production: not failed

Sequence: MRAERGPPKQTISLPVALRKDRDMSEIAPQNRRIRPAAIVVLFLTIALTGCLLALGTWQVQRLFWKLDLIERVDVRAHAEPVDAPAASDWPALGNPSDYEYRRVKLTGTLLNDREVQVYTVTDLGPGYWVMTPLRRDDGSSIIVNRGFVPSDRRDPSSRTGGEPTGNVEIVGLMRAPETGGLFLRTNDPANGRWYSRNIPQITQASGLSDVAPFYVDADATPNPGGLPVGGKTMLTFPNNHLSYAVTWYILAAMVVAAGWYVLRNLNAPKSKRDAD
- protein production: failed

Sequence: MFSLNTLLNPPDNLSVGEIILISLILGMLHGVTPDEHTWPITFSYAIGKYSTKGGMKAGFLFSLGFTIQRAFLTTIGFLGLAAIYNQYNLDGPVYAVVGIVMAIAGSYILKGKYIHLPIDALFKSKQHTEEAGKVKDIPIKMTIVHGLVAGFGFGAYATIITFVLAPQLPSVVYAPLPGLFFGLGTMVMQIIFGMIFGNILRLKKMTEEQLSFIARKTAGRVLYYGGLVFLIVGLLIIVLPAIDNFAISTGNPIPNLDAINIGFLLVISVVGVIGISSILYGFREAKRLAKHI
- protein production: failed

Sequence: MGESGLTNEIDELHEEVTAVSAPGVKPPAQAGRRNIWLKVLISATAFYILLLVALLVTGNPNLFPSLVMVGNFTVPVAYVAFLYERKNFSRLKMPIVSLAFLYGGLVGIIATSFIGPLFITQFNPGDILAVGLVEEFAKILGVVVIARRRRHVLEMDGLILGAAVGMGFAALESTGYAFTAFLISNGSISAVLEVTLFRGLLAPLGHGTWTAILASVLFRESRDCCFRVNLRVIGAYLLVSILHAMWNGLSLVLAPFTGLGLGAIITWALVGFIGLYVLWRRWREAVRLKPVLLPERENV
- protein production: failed

Sequence: MTAANSERYALRLLGPFELTAPGGRRVEITSKKGIAVVAMLALSRDGARSRGWLQDRLWGSRRKAEAAGSLRRELSNLRKLLNADGAELLLSDRDRVRLRTDLIDIDLFVARSGRANGEFLEGLDISSERGFGEWLREQRDALVPPAQDVVVSAVTAGAGTLPTHIVDISTPPVGFAGRPAIAVLPFANATGDETLDYVAEGIGEELIVGLSRIRWLPVISRNSSFSFTESDDRKLIGQRLGAQYLVEGRLYRAYDSYGVSASLAEAITGYSLWSRRFTLQSPAAHDELVQFVNELVAQLESRIEHAEQIRIRGKRQDKLGVCDLIWRGRWHLNRLTRADSEMAQKLFAEALALDPDSPEALIQATAALAWSIWAGRQPQDQIQRMRKLSQQAMLADPDDGRGFMLAGIAEMWLRHPLEAKNLLRQAITLTPSLALAHAQLGGCFNLAGEPDRAIVQLKTAMRLSSNDPNIFYSLGELALAYTMLGQWPEAIEHATLALARRPAYWYAHVLKINALARIGQLDAARIACDELLAIKPNFSKRFLDWLPFVDRTWVDHFVQGLKMVPGRPSDWPERETHETAA
- protein production: failed

Sequence: MSEGNRSRSRLLPSLLGLLILLSGLALLAGGIKLASLGGSLYYLLAGIGLALSGLLLLLGKRAALGLYALVLFASTVWALWEVGLDWWQLVPRLALWFVFGLLLWLPWFRRPLLADGPAPLGTAALGVAVVLAGAAAVGSQFTNPGQIVGRIDRDSGMTSTAPAMPDGDWQAYGRTEFGDRYSPLKQITPANVGQLEEAWRIRTGDLPTADDPLELTNENTPLKVNGMLYACTAHSKVLALDPDTGAEIWRFDPQIQSPVGFKGFAHMTCRGVSYYDEEQYARSDVGAPPAALSEAGKAVAASCPRRLFLPTADARLIAINADNGKVCEDFGVKGAVDLTAGIGPFTPGGYYSTSPAAVTRNLVIIGGHVTDNESTNEPSGVIRAFDVHDGKLVWNWDSGNPDETEPLAPGKFYTRNSPNMWSLASVDEKLGQVYLPLGNQMPDQWGGNRTPGAEKFSAGLVALDLNTGKLRWNYQFTHHDLWDMDVGSQPTLLDLKTADGVKPALIAPTKQGSLYVLDRRDGTPIVPIREVPAPQGAVEGDHTAPTQARSDLNLLRPPLTERDMWGSSPFDQMLCRIQFRSLRYEGQYTPPSEQGSLIYPGNVGVFNWGGVSVDPVRQILFTSPNYMAFVSQMVPRDKVPSGSKREGETSGVQPNTGAPYAVIMHPFMSPIGLPCQAPSWGDVAGIDLTTAKVVWQHKNGTSRDNTPVPIGLTVGVPSMGGSITTAGGVAFLSGTLDQYLRAYDVKDGKQLWQARLPAGGQATPMSYTGKDGRQYVLIVAGGHGSFGTRMGDYIIAYALPRQ
- protein production: failed
